Numbering of substitutions follows the chain as printed. Names and notes keep the numbering of the source.
B1: C22S/A190S/A226R (protein, listed as Homo sapiens)
chain: IIGGTESKPHSRPYMAYLEIVTSNGPSKFCGGFLIRRNFVLTAAHCAGRSITVTLGAHNITEEEDTWQKLEVIKQFRHPKYNTSTLHHDIMLLKLKEKASLTLAVGTLPFPSQFNFVPPGRMCRVAGWGRTGVLKPGSDTLQEVKLRLMDPQACSHFRDFDHNLQLCVGNPRKTKSSFKGDSGGPLLCAGVAQGIVSYGRSDAKPPRVFTRISHYRPWINQILQAN
B2: C22S/D175N/A226R (protein, listed as Homo sapiens)
chain: B1 chain with D159N, S177A
B3: C22S/F173Y/A226R (protein, listed as Homo sapiens)
chain: B1 chain with F157Y, S177A
B4: C22S/S218I/A226R (protein, listed as Homo sapiens)
chain: B1 chain with S177A, S201I
B5: C22S/F173L/Y215H/A226R (protein, listed as Homo sapiens)
chain: B1 chain with F157L, S177A, Y198H
B6: C22S/V138S/S189T/A226R/F228M (protein, listed as Homo sapiens)
chain: B1 chain with V125S, S176T, S177A, F209M
B7: C22S/A220S/A226R (protein, listed as Homo sapiens)
chain: B1 chain with S177A, A203S
B8: C22S/V138T/A190S/V213A/A226R (protein, listed as Homo sapiens)
chain: B1 chain with V125T, V196A
B9: C22S/V138A/S189T/A226R/F228M (protein, listed as Homo sapiens)
chain: B1 chain with V125A, S176T, S177A, F209M
B10: C22S/V138A/G145D/S189T/A190S/A226R (protein, listed as Homo sapiens)
chain: B1 chain with V125A, G132D, S176T
B11: C22S/A226R/F228A (protein, listed as Homo sapiens)
chain: B1 chain with S177A, F209A
B12: C22S/V138L/A226R (protein, listed as Homo sapiens)
chain: B1 chain with V125L, S177A
B13: C22S/V138L/S189T/A190G/A226R (protein, listed as Homo sapiens)
chain: B1 chain with V125L, S176T, S177G
B14: C22S/V138A/A226R (protein, listed as Homo sapiens)
chain: B1 chain with V125A, S177A
B15: C22S/V138I/L160V/S189T/A226R (protein, listed as Homo sapiens)
chain: B1 chain with V125I, L146V, S176T, S177A
B16: C22S/V138A/S189T/A226R (protein, listed as Homo sapiens)
chain: B1 chain with V125A, S176T, S177A

Test system: serpins
Assay: Serpin inhibition tests of chymase-based engineered proteases
Type: biochemical
Settings: Plasma Inhibitor: plasma antichymotrypsin (plasma ACT)
Method: Inhibition tests were carried out using chymase-based engineered proteases. Various serpins, which are capable of inhibiting protease activity, were used to test whether these could be used for adequate inhibition of the tested chymase-based engineered proteases, to enable selection of an engineered protease resistant to inhibition in plasma. All references in this Example to engineered proteases are depicted in chymotrypsin numbering. The chymotrypsin numbering key for the modified protease domains of engineered proteases are found in Tables 2, 4, and 6 for uPA, MTSP-1, and chymase, respectively.

Molecule | kapp [M⁻¹ s⁻¹]
B1 | 1599

Test system: not listed separately
Assay: Half-life in 50% human plasma of chymase-based engineered proteases
Type: in vitro ADME
Settings: EGVD′AE substrate
Method: Table 10B presents human Factor B cleavage by various engineered chymase-, MTSP-1-, or uPA-based proteases, tested in mouse or human plasma. For ELISA analysis of Factor B cleavage, briefly, anti-Ba was used, and Bb was detected with anti-Bb. A dynamic range of 25-1600 pM was used. Half-life in 50% human plasma was also calculated for various chymase-based engineered proteases.

Molecule | t1/2 in 50% human plasma (min) (EGVD′AE)(SEQ ID NO: 13)
B2 | 6.2
B3 | 5.9
B1 | 4.2
B4 | 7.8

Target: Human Factor B (Homo sapiens, UniProt P00751)
Assay: Human Factor B cleavage EC50 in 80% human plasma (Table 10A)
Type: biochemical
Settings: chymase-based engineered proteases; no plasma stated; read-out: fB Cleavage EC50
Method: Cleavage of Factor B by various engineered proteases was evaluated. Engineered chymase-, MTSP-1-, and uPA-based proteases were tested. All references in this Example, including Tables 10A, 10B, 11A, and 11B, to engineered proteases are depicted in chymotrypsin numbering. The chymotrypsin numbering key for the modified protease domains of engineered proteases are found in Tables 2, 4, and 6 for uPA, MTSP-1, and chymase, respectively. These experiments were also performed to evaluate the stability of non-naturally occurring chymases in various media, including cynomolgus monkey vitreous humor, human plasma, and phosphate buffered saline (PBS). Briefly, Factor B was diluted into an assay buffer and incubated at 37° C. with naturally occurring (wild type) and non-naturally occurring (engineered) proteases in vitreous humor, plasma, or PBS, and the reactions were quenched with HCl at various time points. The time points tested for chymase include T=0 which used 6 hours pre-incubation, T=2 hours which used 4 hours pre-incubation, T=4 hours which used 2 hours pre-incubation, and T=6 hours which used 0 hours pre-incubation. Assaying of the sample was performed with ELISA, or alpha screen for human C3 cleavage, using standard protocols.
A summary of the results is presented in Tables 10A-10B below, showing the various tested proteases, the concentration of the protease used in nM and the EC50 of human Factor B cleavage. Table 10 presents human Factor B cleavage by various non-naturally occurring chymase-based engineered proteases, tested in 80% human plasma, compared against a chymase comprising the mutation string […]. Blank cells indicate that a test was not performed for a particular protease mutation string.

Sequence of Human Factor B (P00751 26-764): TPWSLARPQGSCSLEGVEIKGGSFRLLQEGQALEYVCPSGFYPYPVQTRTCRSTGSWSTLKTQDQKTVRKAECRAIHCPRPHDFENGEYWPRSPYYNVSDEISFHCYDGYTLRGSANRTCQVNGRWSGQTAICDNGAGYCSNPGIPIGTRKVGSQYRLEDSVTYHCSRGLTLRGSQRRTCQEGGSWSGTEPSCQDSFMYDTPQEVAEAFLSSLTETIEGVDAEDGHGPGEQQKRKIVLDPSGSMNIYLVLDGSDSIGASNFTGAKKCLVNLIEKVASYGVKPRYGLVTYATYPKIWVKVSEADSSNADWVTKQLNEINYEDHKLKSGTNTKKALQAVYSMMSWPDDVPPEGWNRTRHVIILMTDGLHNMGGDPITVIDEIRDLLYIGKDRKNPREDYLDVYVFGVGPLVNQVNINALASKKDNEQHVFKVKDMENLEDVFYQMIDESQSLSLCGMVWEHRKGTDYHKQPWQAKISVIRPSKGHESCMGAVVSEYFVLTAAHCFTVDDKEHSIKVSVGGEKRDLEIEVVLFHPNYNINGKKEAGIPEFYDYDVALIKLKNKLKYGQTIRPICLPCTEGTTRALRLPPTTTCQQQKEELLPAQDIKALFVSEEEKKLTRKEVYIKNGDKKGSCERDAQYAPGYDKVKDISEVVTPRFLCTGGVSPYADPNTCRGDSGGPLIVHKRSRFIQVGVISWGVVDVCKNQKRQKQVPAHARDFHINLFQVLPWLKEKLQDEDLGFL

Molecule | EC50 [µM]
B5 | 5.99
B2 | 0.564
B6 | 2.98
B7 | 5.56
B3 | 0.65
B8 | 6.71
B9 | 1.77
B10 | 3.81
B11 | 5.07
B12 | 3.48
B13 | 4.16
B14 | 2.94
B4 | 0.83
B15 | 7.13
B16 | 4.42

Same assay, conditions: read-out: fB Cleavage, 80% plasma EC50; chymase-based; 80% human plasma

Molecule | EC50 [µM]
B2 | 7.77
B3 | 21
